The results in this text go back to patent US9618524B2, “Method, composition, isolation and identification of a plaque particle and related biomarker” (Plaxgen Inc., priority 2012, dated 2017).

The chains are these.
B1: Ig gamma-3 chain C region (protein)
chain: ASTKGPSVFPLAPCSRSTSGGTAALGCLVKDYFPEPVTVSWNSGALTSGVHTFPAVLQSSGLYSLSSVVTVPSSSLGTQTYTCNVNHKPSNTKVDKRVELKTPLGDTTHTCPRCPEPKSCDTPPPCPRCPEPKSCDTPPPCPRCPEPKSCDTPPPCPRCPAPELLGGPSVFLFPPKPKDTLMISRTPEVTCVVVDVSHEDPEVQFKWYVDGVEVHNAKTKPREEQYNSTFRVVSVLTVLHQDWLNGKEYKCKVSNKALPAPIEKTISKTKGQPREPQVYTLPPSREEMTKNQVSLTCLVKGFYPSDIAVEWESSGQPENNYNTTPPMLDSDGSFFLYSKLTVDKSRWQQGNIFSCSVMHEALHNRFTQKSLSLSPGK
B2: Platelet factor 4 variant (protein)
chain: FARAEAEEDGDLQCLCVKTTSQVRPRHITSLEVIKAGPHCPTAQLIATLKNGRKICLDLQALLYKKIIKEHLES
B3: Lactotransferrin (protein)
chain: GRRRSVQWCAVSQPEATKCFQWQRNMRKVRGPPVSCIKRDSPIQCIQAIAENRADAVTLDGGFIYEAGLAPYKLRPVAAEVYGTERQPRTHYYAVAVVKKGGSFQLNELQGLKSCHTGLRRTAGWNVPIGTLRPFLNWTGPPEPIEAAVARFFSASCVPGADKGQFPNLCRLCAGTGENKCAFSSQEPYFSYSGAFKCLRDGAGDVAFIRESTVFEDLSDEAERDEYELLCPDNTRKPVDKFKDCHLARVPSHAVVARSVNGKEDAIWNLLRQAQEKFGKDKSPKFQLFGSPSGQKDLLFKDSAIGFSRVPPRIDSGLYLGSGYFTAIQNLRKSEEEVAARRARVVWCAVGEQELRKCNQWSGLSEGSVTCSSASTTEDCIALVLKGEADAMSLDGGYVYTAGKCGLVPVLAENYKSQQSSDPDPNCVDRPVEGYLAVAVVRRSDTSLTWNSVKGKKSCHTAVDRTAGWNIPMGLLFNQTGSCKFDEYFSQSCAPGSDPRSNLCALCIGDEQGENKCVPNSNERYYGYTGAFRCLAENAGDVAFVKDVTVLQNTDGNNNEAWAKDLKLADFALLCLDGKRKPVTEARSCHLAMAPNHAVVSRMDKVERLKQVLLHQQAKFGRNGSDCPDKFCLFQSETKNLLFNDNTECLARLHGKTTYEKYLGPQYVAGITNLKKCSTSPLLEACEFLRK
B4: Phosphatidylinositol-glycan-specific phospholipase D (protein)
chain: CGLSTHVEIGHRALEFLQLHNGRVNYRELLLEHQDAYQAGIVFPDCFYPSICKGGKFHDVSESTHWTPFLNASVHYIRENYPLPWEKDTEKLVAFLFGITSHMAADVSWHSLGLEQGFLRTMGAIDFHGSYSEAHSAGDFGGDVLSQFEFNFNYLARRWYVPVKDLLGIYEKLYGRKVITENVIVDCSHIQFLEMYGEMLAVSKLYPTYSTKSPFLVEQFQEYFLGGLDDMAFWSTNIYHLTSFMLENGTSDCNLPENPLFIACGGQQNHTQGSKMQKNDFHRNLTTSLTESVDRNINYTERGVFFSVNSWTPDSMSFIYKALERNIRTMFIGGSQLSQKHVSSPLASYFLSFPYARLGWAMTSADLNQDGHGDLVVGAPGYSRPGHIHIGRVYLIYGNDLGLPPVDLDLDKEAHRILEGFQPSGRFGSALAVLDFNVDGVPDLAVGAPSVGSEQLTYKGAVYVYFGSKQGGMSSSPNITISCQDIYCNLGWTLLAADVNGDSEPDLVIGSPFAPGGGKQKGIVAAFYSGPSLSDKEKLNVEAANWTVRGEEDFSWFGYSLHGVTVDNRTLLLVGSPTWKNASRLGHLLHIRDEKKSLGRVYGYFPPNGQSWFTISGDKAMGKLGTSLSSGHVLMNGTLKQVLLVGAPTYDDVSKVAFLTVTLHQGGATRMYALTSDAQPLLLSTFSGDRRFSRFGGVLHLSDLDDDGLDEIIMAAPLRIADVTSGLIGGEDGRVYVYNGKETTLGDMTGKCKSWITPCPEEKAQYVLISPEASSRFGSSLITVRSKAKNQVVIAAGRSSLGARLSGALHVYSLGSD
B5: Isoform 2 of Ficolin-3 (protein)
chain: QEHPSCPGPRELEASKVVLLPSCPGAPGSPGEKGAPGPQGPPGPPGKMGPKGEPGPRNCRELLSQGATLSGWYHLCLPEGRALPVFCDMDTEGGGWLVFQRRQDGSVDFFRSWSSYRAGFGNQESEFWLGNENLHQLTLQGNWELRVELEDFNGNRTFAHYATFRLLGEVDHYQLALGKFSEGTAGDSLSLHSGRPFTTYDADHDSSNSNCAVIVHGAWWYASCYRSNLNGRYAVSEAAAHKYGIDWASGRGVGHPYRRVRMMLR
B6: Tetranectin (protein)
chain: EPPTQKPKKIVNAKKDVVNTKMFEELKSRLDTLAQEVALLKEQQALQTVCLKGTKVHMKCFLAFTQTKTFHEASEDCISRGGTLGTPQTGSENDALYEYLRQSVGNEAEIWLGLNDMAAEGTWVDMTGARIAYKNWETEITAQPDGGKTENCAVLSGAANGKWFDKRCRDQLPYICQFGIV
B7: Thyroxine-binding globulin (protein)
chain: ASPEGKVTACHSSQPNATLYKMSSINADFAFNLYRRFTVETPDKNIFFSPVSISAALVMLSFGACCSTQTEIVETLGFNLTDTPMVEIQHGFQHLICSLNFPKKELELQIGNALFIGKHLKPLAKFLNDVKTLYETEVFSTDFSNISAAKQEINSHVEMQTKGKVVGLIQDLKPNTIMVLVNYIHFKAQWANPFDPSKTEDSSSFLIDKTTTVQVPMMHQMEQYYHLVDMELNCTVLQMDYSKNALALFVLPKEGQMESVEAAMSSKTLKKWNRLLQKGWVDLFVPKFSISATYDLGATLLKMGIQHAYSENADFSGLTEDNGLKLSNAAHKAVLHIGEKGTEAAAVPEVELSDQPENTFLHPIIQIDRSFMLLILERSTRSILFLGKVVNPTEA

The subject of one test is Tau plaque particles. Kind of test: Mass spectroscopy proteomics, semi-quantitative binding affinity of serum proteins (plaqueproteome, Table 2). More on the design: species or system human. The settings on record: higher number = stronger affinity. In a few lines: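 Synthetic Tau-74 and Tau-275 peptides (1 mg/mL PBS, 37° C, 2 h) aggregated; 30 μg aggregates incubated with 50% serum/plasma 1 h at 37° C, stained with Thioflavin S, and plaque particles sorted by flow cytometry. Bound proteins trypsin-digested and identified by MS/MS against human UniProt.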
For B1, the “Semi-quantitative analysis of proteins binding to different plaque particles: Tau” value is given as 13.
Turning to B2, the “Semi-quantitative analysis of proteins binding to different plaque particles: Tau” value is on record as 0.
As for B3, the “Semi-quantitative analysis of proteins binding to different plaque particles: Tau” value is 0.
In the case of B4, the “Semi-quantitative analysis of proteins binding to different plaque particles: Tau” value is given as 2.
On the same count and under the same terms, then B5, with 0.
On the same count and under the same terms, then B6, with 0; and B7, with 1.

Another test concerns the target T1, alpha-synuclein plaque particles (Homo sapiens, UniProt P37840).
T1 construct: 140 amino acids polypeptide
Described as above. The settings on record: higher number = stronger affinity. Summed up: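 AD-subject plasma or serum (800 μL of 50%) mixed with 30 μg preformed alpha-synuclein aggregates for 1 h at 37 °C; Thioflavin S-positive particles isolated by flow sorting. After reduction, acrylamide alkylation and overnight tryptic digestion, serum proteins identified by MS/MS with Sequest and Scaffold.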
Take B1: the “Semi-quantitative analysis of proteins binding to different plaque particles: Synuclein” value is recorded as 14.
For the molecule B2, the “Semi-quantitative analysis of proteins binding to different plaque particles: Synuclein” value is listed as 1.
On to B3, for which the “Semi-quantitative analysis of proteins binding to different plaque particles: Synuclein” value was determined as 0.
As to B4, the “Semi-quantitative analysis of proteins binding to different plaque particles: Synuclein” value was found to be 0.
In the case of B5, the “Semi-quantitative analysis of proteins binding to different plaque particles: Synuclein” value is given as 1.
Take B6: the “Semi-quantitative analysis of proteins binding to different plaque particles: Synuclein” value was 0.
Consider B7, for which the “Semi-quantitative analysis of proteins binding to different plaque particles: Synuclein” value is reported as 0.

A further test deals with Low density cholesterol (Chl small) plaque particles. The test is described as above. More on the design: species or system human. The settings on record: higher number = stronger affinity. Summed up: (§1)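 Serum or plasma from atherosclerotic subjects, as 50% serum, was incubated with 30 μg cholesterol aggregates for 1 h at 37 °C. High- and low-density particles were then flow-sorted, trypsin-digested and analysed by MS/MS. Proteins were identified by Sequest search against human UniProt and validated with Protein Prophet.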
In the case of B1, the “Semi-quantitative analysis of proteins binding to different plaque particles: Chl small” value turned out to be 11.
B2: the “Semi-quantitative analysis of proteins binding to different plaque particles: Chl small” value is 0.
For B3, the “Semi-quantitative analysis of proteins binding to different plaque particles: Chl small” value was 0.
For B4, the “Semi-quantitative analysis of proteins binding to different plaque particles: Chl small” value amounted to 1.
Regarding B5, the “Semi-quantitative analysis of proteins binding to different plaque particles: Chl small” value came to 0.
Still for that read-out and setting: as for B6, the figure is 1.
With B7, the “Semi-quantitative analysis of proteins binding to different plaque particles: Chl small” value was 1.

The next test has as its system High Density cholesterol (Chl Large) plaque particles. The test is described as above. On the set-up: species or system human. Particulars: higher number = stronger affinity. In a few lines:
as §1
As to B1, the “Semi-quantitative analysis of proteins binding to different plaque particles: Chl Large” value is given as 15.
As for B2, the “Semi-quantitative analysis of proteins binding to different plaque particles: Chl Large” value worked out at 1.
With B3, the “Semi-quantitative analysis of proteins binding to different plaque particles: Chl Large” value came out at 0.
As to B4, the “Semi-quantitative analysis of proteins binding to different plaque particles: Chl Large” value was found to be 1.
On the same count and under the same terms, then B5, with 0; and B6, with 0; and B7, with 0.

The next test concerns the target T2, Abeta-42 plaque particles (Homo sapiens, UniProt P05067).
T2 construct: Abeta 1-42
The test is described as above. Particulars: higher number = stronger affinity. In a few lines: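 AD patient serum or plasma (50% in PBS) was incubated with Abeta-42 aggregates (30 μg) for 1 h at 37 °C, then stained with Thioflavin S for 30 min. Labeled particles were FACS-sorted, trypsin/Lys-C digested overnight and analyzed by MS/MS. Sequest searched human UniProt; Scaffold/Protein Prophet validated the identifications.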
For B1, the “Semi-quantitative analysis of proteins binding to different plaque particles: Abeta-42” value is reported as 11.
With B2, the “Semi-quantitative analysis of proteins binding to different plaque particles: Abeta-42” value was 0.
The same measure, in the same setting: as for B3, the figure is 5; as for B4, 0.
Consider B5, for which the “Semi-quantitative analysis of proteins binding to different plaque particles: Abeta-42” value turned out to be 0.
Turning to B6, the “Semi-quantitative analysis of proteins binding to different plaque particles: Abeta-42” value turned out to be 0.
With B7, the “Semi-quantitative analysis of proteins binding to different plaque particles: Abeta-42” value was found to be 2.
